# Where two headings read alike, the source gives them in different places. Marks after values point to notes of the source that are not given here.
# How the values were obtained:
# [1] = Radiobiotin dissociation assay; type: binding; settings: [3H]biotin, various temperatures
# Experimental: The dissociation rate of [3H]biotin from avidin, AVR4/5 and the avidin mutants was determined as described in (20) at various temperatures. The activation thermodynamic parameters for AVR4/5(C122S) and avidin were determined by analysis of the dependence of the dissociation rate upon temperature using the global fit of all data, as described in (21).
# [2] = cited from earlier work
# Proteinase K [3] = settings: even without bound biotin; refs (8,32); cited from earlier work
# [4] = recombinant protein, earlier report; cited from earlier work
# [5] = Differential scanning calorimetry (DSC), heat denaturation; type: physicochemical; settings: for ΔTm, change in Tm upon addition of a three-fold molar excess of biotin / Tm(+biotin) / ΔH (unfolding enthalpy) / Tm(−biotin): DSC; for Tm(+biotin): biotin 3:1 molar ratio biotin:avidin monomer; for ΔH (unfolding enthalpy): sample without biotin; for Tm(−biotin): without biotin, average ± S.D
# Experimental: The transition midpoint of the heat denaturation (Tm) of the avidin proteins was studied using a Calorimetry Sciences Corporation (CSC) Nano II differential scanning calorimeter, as in previous reports (22,23). Proteins (˜0.5 mg/ml) were analyzed both in the absence and presence of biotin (3:1 molar ratio; biotin:avidin monomer).
# [6] = Microplate assay: remaining biotin-binding activity after heat treatment; type: physicochemical; settings: 50 mM phosphate buffer, 100 mM NaCl, pH 7.0
# Experimental: The inactivation of the proteins during heat-treatment was analysed by using a microplate assay (23). The proteins were heated to 99.9° C. in 50 mM phosphate buffer containing 100 mM NaCl (pH 7.0) for 32 minutes. The remaining activity was probed by measuring the ability of the proteins to bind biotinylated alkaline phosphatase by coating the microplate wells with samples of the heated proteins.
# Proteinase K [7] = assay: Proteinase K assay (proteolytic resistance, SDS-PAGE); type: physicochemical; settings: for state after incubation with Proteinase K: 16 hours, in the presence or absence of biotin
# Experimental: The proteolytic resistance of the proteins were studied using proteolysis by Proteinase K, as previously described (7). Protein sample (4 μg) was incubated in the presence of Proteinase K ( 1/25 w/w) at 37° C. for a predetermined time period, denatured by boiling in sample buffer (SDS, 2-mercaptoethanol) and subjected to SDS-PAGE followed by coomassie staining.
# [8] = Fluorescent biotin dissociation assay; type: binding
# Experimental: The binding of labelled biotin to avidins was analysed by a method based on the quenching of a biotin-coupled fluorescent probe ArcDia BF560 (ArcDia Ltd., Turku, Finland) due to binding to avidin, as previously described (18). The measurements were performed using a PerkinElmer LS55 luminometer with thermostated cuvette (25 or 50° C.). The signal measured for 3600 sec (25° C.) or 2400 sec (50° C.) was used to determine the dissociation rate constant.
# [9] = IAsys optical biosensor (SPR), 2-iminobiotin binding; settings: 2-iminobiotin surface, 20° C., 50 mM borate buffer pH 9.5, 1 M NaCl
# Experimental: The biotin-binding characteristics of the different avidins were studied by a surface plasmon resonance (SPR) optical biosensor (IAsys). The binding affinities to the 2-iminobiotin surface in 50 mM borate buffer (pH 9.5, 1 M NaCl) were measured as previously reported (7).
Molecule,biotin binding / dissociation rate in radiobiotin dissociation assay [1],"kass, association rate constant [9]","ΔTm, change in Tm upon addition of a three-fold molar excess of biotin [5] [°C]",Tm(+biotin) [5],ΔH (unfolding enthalpy) [5] [kcal/mol],Tm(−biotin) [5] [°C],Activity: biotin-binding activity after 32 min treatment at 99.9° C. [6] [%],state after incubation with Proteinase K (Proteinase K [7]),Release 1 h (total release of the probe) ([8]; 25° C.) [%],"kdiss, dissociation rate constant ([8]; 25° C.)",Release 1 h (total release of the probe) ([8]; 50° C.) [%],"kdiss, dissociation rate constant ([8]; 50° C.)","Tm, transition midpoint of heat denaturation [5] [°C]",also measured
"AVR4/5(C122S): AVR4/5 with the cysteine forming intermonomeric disulphide bridges mutated to serine; insect cell produced (protein, UniProt P56734 25-150, looked up, variant C122S) Avidin-related protein 4/5: ARKCSLTGKWTNNLGSIMTIRAVNSRGEFTGTYLTAVADNPGNITLSPLLGIQHKRASQPTFGFTVHWNFSESTTVFTGQCFIDRNGKEVLKTMWLLRSSVNDISYDWKATRVGYNNFTRLSTVEE",tight biotin binding,(9.3 ± 0.4) × 10^3 M^−1s^−1,,,,,72,,12.5,2.77 10^−5 s^−1,93.7,7.88 10^−4 s^−1,,"resistance to the proteolytic activity of Proteinase K (Proteinase K [7]; even without biotin): total resistance; ΔH (unfolding enthalpy) ([2]; DSC, sample without biotin, results from ref (8)): 137 ± 7.89 kcal/mol; Tm(+biotin) ([2]; DSC, with biotin, results from ref (8)): 125.4 ± 0.8 °C; Tm(−biotin) ([2]; DSC, without biotin, results from ref (8)): 106.4 ± 0.8 °C; ΔTm, change in Tm upon addition of a three-fold molar excess of biotin ([2]; DSC, results from ref (8)): 19.5 °C"
"ChiAVD(I117Y): Residues 38-58 moved from AVR4/5 to avidin and mutation I117Y in 1-3 subunit interface (SEQ ID NO:16) (protein, listed as Gallus gallus) MVHATSPLLLLLLLSLALVAPGLSARKCSLTGKWTNDLGSNMTIGAVNSRGEFTGTYITAVADNPGNITLSPLLGIQHKRASQPTFGFTVNWKFSESTTVFTGQCFIDRNGKEVLKTMWLLRSSVNDIGDDWKATRVGYNIFTRLRTQKE",resembled AVR4/5(C122S),(1.6 ± 0.2) × 10^4 M^−1s^−1,~19,~130^d ° C.,158 ± 9.08,111.1 ± 0.2,98,remaining intact,9.5,1.94 10^−5 s^−1,94.8,7.33 10^−4 s^−1,111.1,

# Now from value to molecule, other results behind:
biotin binding / dissociation rate in radiobiotin dissociation assay [1],"kass, association rate constant [9]",Molecule,"ΔTm, change in Tm upon addition of a three-fold molar excess of biotin [5] [°C]",Tm(+biotin) [5],ΔH (unfolding enthalpy) [5] [kcal/mol],Tm(−biotin) [5] [°C],Activity: biotin-binding activity after 32 min treatment at 99.9° C. [6] [%],state after incubation with Proteinase K (Proteinase K [7]),Release 1 h (total release of the probe) ([8]; 25° C.) [%],"kdiss, dissociation rate constant ([8]; 25° C.)",Release 1 h (total release of the probe) ([8]; 50° C.) [%],"kdiss, dissociation rate constant ([8]; 50° C.)","Tm, transition midpoint of heat denaturation [5] [°C]",also measured
almost as tightly as avidin,,"AVR4/5: Avidin-related protein encoded identically by chicken genes AVR4 and AVR5 (protein, UniProt P56734 25-150, looked up) Avidin-related protein 4/5: ARKCSLTGKWTNNLGSIMTIRAVNSRGEFTGTYLTAVADNPGNITLSPLLGIQHKRASQPTFGFTVHWNFSESTTVFTGQCFIDRNGKEVLKTMWLLRSSVNDISYDWKATRVGYNNFTRLCTVEE",,,,,,,,,,,,"Tm, transition midpoint of heat denaturation ([2]; from ref (8)): 106.4 °C; resistance to cleavage by Proteinase K (Proteinase K [3]): resistant to cleavage; biotin binding [4]: almost as tightly as avidin"
slightly slower dissociation rate,,"AVR4/5(C122S)-b: AVR4/5(C122S) produced in E. coli, non-glycosylated, three additional N-terminal residues (Gln-Thr-Val) (protein, UniProt P56734 25-150, looked up, variant C122S, N-terminal Gln-Thr-Val extension) Avidin-related protein 4/5: ARKCSLTGKWTNNLGSIMTIRAVNSRGEFTGTYLTAVADNPGNITLSPLLGIQHKRASQPTFGFTVHWNFSESTTVFTGQCFIDRNGKEVLKTMWLLRSSVNDISYDWKATRVGYNNFTRLSTVEE",17.2,127.1 °C,110,109.9,56,remaining intact,10.9,2.31 10^−5 s^−1,88.3,6.20 10^−4 s^−1,,
resembled AVR4/5(C122S),(1.7 ± 0.1) × 10^4 M^−1s^−1,"ChiAVD: Chimeric avidin: residues 38-58 moved from AVR4/5 to avidin (SEQ ID NO:15) (protein, listed as Gallus gallus) MVHATSPLLLLLLLSLALVAPGLSARKCSLTGKWTNDLGSNMTIGAVNSRGEFTGTYITAVADNPGNITLSPLLGIQHKRASQPTFGFTVNWKFSESTTVFTGQCFIDRNGKEVLKTMWLLRSSVNDIGDDWKATRVGINIFTRLRTQKE",27.9,124.4 ± 0.2 °C,126 ± 2.39,96.5 ± 0.2,47,remaining intact,13.1,1.76 10^−5 s^−1,93.9,8.00 10^−4 s^−1,96.5,

# Source: patent publication US7268216B2, “Chimeric avidin mutants” (Licentia Oy, priority 2004, dated 2007)
